Laboratory results published in article PMC2189805.

Molecular target: SETα (human (endogenous in HeLa)) (UniProt Q01105)
Assay: co-IP

Sequence of UniProt Q01105 (Q01105 2-290): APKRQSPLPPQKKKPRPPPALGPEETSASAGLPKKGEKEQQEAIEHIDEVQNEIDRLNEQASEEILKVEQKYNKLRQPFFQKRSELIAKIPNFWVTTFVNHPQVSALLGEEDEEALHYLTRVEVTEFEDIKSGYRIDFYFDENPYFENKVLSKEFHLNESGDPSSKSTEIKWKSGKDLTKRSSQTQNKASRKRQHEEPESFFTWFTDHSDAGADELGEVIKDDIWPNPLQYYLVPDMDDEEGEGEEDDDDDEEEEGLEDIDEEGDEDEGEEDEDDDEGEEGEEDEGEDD

percent of total cellular HuR bound: 5%
Substance: HuR (endogenous) (from UniProt Q15717 1-326) (natural protein)
